Measured values as given in US20090324614A1.

What was measured:
[1] = target: soluble human FcRn (shFcRn) (human) (UniProt P55899); test: Biacore, IgG immobilized, hFcRn flowed, pH 7.4
[2] = target: rat FcRn/rat β2M expressed on cells (rat) (UniProt P13599); test: FACS blocking of IgG-Fc, IgG, pH 6
rat FcRn/rat β2M expressed on cells (rat), sequence (P13599 23-366 limits assumed, chain 1 of 2): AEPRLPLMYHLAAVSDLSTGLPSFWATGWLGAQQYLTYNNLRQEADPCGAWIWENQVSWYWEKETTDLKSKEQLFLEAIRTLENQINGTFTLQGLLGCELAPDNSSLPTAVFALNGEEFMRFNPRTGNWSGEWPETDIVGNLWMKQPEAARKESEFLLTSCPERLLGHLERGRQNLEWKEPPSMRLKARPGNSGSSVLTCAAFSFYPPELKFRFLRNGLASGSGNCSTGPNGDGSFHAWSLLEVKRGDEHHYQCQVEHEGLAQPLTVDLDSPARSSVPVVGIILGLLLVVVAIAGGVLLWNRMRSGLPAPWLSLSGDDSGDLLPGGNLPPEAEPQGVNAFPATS
rat FcRn/rat β2M expressed on cells (rat), sequence (b2m, as listed by the source limits assumed, chain 2 of 2): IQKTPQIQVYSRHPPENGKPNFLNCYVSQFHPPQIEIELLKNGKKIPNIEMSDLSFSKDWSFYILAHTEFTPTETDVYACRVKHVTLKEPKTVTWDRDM

soluble human FcRn (shFcRn) (human), sequence (P55899 24-297 limits assumed, chain 1 of 2): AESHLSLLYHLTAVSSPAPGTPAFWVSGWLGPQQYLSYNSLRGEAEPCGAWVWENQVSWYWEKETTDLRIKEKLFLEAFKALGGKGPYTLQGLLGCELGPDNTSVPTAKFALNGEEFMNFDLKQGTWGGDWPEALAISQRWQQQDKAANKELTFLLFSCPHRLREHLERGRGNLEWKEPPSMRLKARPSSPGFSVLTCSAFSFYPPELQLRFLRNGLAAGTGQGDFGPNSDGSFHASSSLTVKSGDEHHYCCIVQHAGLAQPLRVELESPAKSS
soluble human FcRn (shFcRn) (human), sequence (b2m, as listed by the source limits assumed, chain 2 of 2): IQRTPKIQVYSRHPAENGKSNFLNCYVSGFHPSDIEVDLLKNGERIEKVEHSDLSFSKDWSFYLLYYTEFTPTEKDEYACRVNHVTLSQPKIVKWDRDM

Row | Substance | Kd [1] [nM] | IC50 [2] [nM]
1 | M161-B04 IgG (DX-2504) (antibody) | 7.06 | 
2 | 1G3 mouse anti-rat FcRn IgG (antibody) |  | 1.5
